Results: PMC10041110

Molecular target: Chikungunya virus nonstructural protein 1 (nsP1) capping pore (Chikungunya virus)
Test: cryo-EM structure

Chikungunya virus nonstructural protein 1 (nsP1) capping pore (enzyme)
stoichiometry N: 12
